Assay results published in patent US20190194280A1.

Target: Serum samples collected at week 16 from patients immunized with UBI AD vaccine (UB-311)
Assay: comp. ELISA, serum P107

| Binder | IC50-based peak height |
| --- | --- |
| EVHHQKLVFF [Aβ11-20 or APP 770 (E682-F691)] | 0 |
| SGYEVHHQKL [Aβ8-17 or APP 770 (S679-L688)] | 0 |
| HQKLVFFAED [Aβ14-23 or APP 770 (H685-D694)] | 0 |
| EFRHDSGYEV [Aβ3-12 or APP 770 (E674-V683)] | 0 |
| AEFRHDSGYE [Aβ2-11 or APP 770 (A673-E682)] | 0 |

Target: Serum samples collected at week 16 from patients immunized with UBI AD vaccine (UB-311)
Assay: comp. ELISA, serum P105

| Binder | IC50-based peak height |
| --- | --- |
| EVHHQKLVFF [Aβ11-20 or APP 770 (E682-F691)] | 0 |
| SGYEVHHQKL [Aβ8-17 or APP 770 (S679-L688)] | 0 |
| HQKLVFFAED [Aβ14-23 or APP 770 (H685-D694)] | 0 |
| EFRHDSGYEV [Aβ3-12 or APP 770 (E674-V683)] | 0 |
| AEFRHDSGYE [Aβ2-11 or APP 770 (A673-E682)] | 0 |

Target: Serum samples collected at week 16 from patients immunized with UBI AD vaccine (UB-311)
Assay: comp. ELISA, serum P210

| Binder | IC50-based peak height |
| --- | --- |
| EVHHQKLVFF [Aβ11-20 or APP 770 (E682-F691)] | 0 |
| SGYEVHHQKL [Aβ8-17 or APP 770 (S679-L688)] | 0 |
| HQKLVFFAED [Aβ14-23 or APP 770 (H685-D694)] | 0 |
| EFRHDSGYEV [Aβ3-12 or APP 770 (E674-V683)] | 0 |
| AEFRHDSGYE [Aβ2-11 or APP 770 (A673-E682)] | 0 |

Target: Serum samples collected at week 16 from patients immunized with UBI AD vaccine (UB-311)
Assay: comp. ELISA, serum P208

| Binder | IC50-based peak height |
| --- | --- |
| EVHHQKLVFF [Aβ11-20 or APP 770 (E682-F691)] | 0 |
| SGYEVHHQKL [Aβ8-17 or APP 770 (S679-L688)] | 0 |
| HQKLVFFAED [Aβ14-23 or APP 770 (H685-D694)] | 0 |
| EFRHDSGYEV [Aβ3-12 or APP 770 (E674-V683)] | 0 |
| AEFRHDSGYE [Aβ2-11 or APP 770 (A673-E682)] | 0 |

Target: Serum samples collected at week 16 from patients immunized with UBI AD vaccine (UB-311)
Assay: comp. ELISA, serum P101

| Binder | IC50-based peak height |
| --- | --- |
| EVHHQKLVFF [Aβ11-20 or APP 770 (E682-F691)] | 0 |
| SGYEVHHQKL [Aβ8-17 or APP 770 (S679-L688)] | 0 |
| HQKLVFFAED [Aβ14-23 or APP 770 (H685-D694)] | 0 |
| EFRHDSGYEV [Aβ3-12 or APP 770 (E674-V683)] | 0 |
| AEFRHDSGYE [Aβ2-11 or APP 770 (A673-E682)] | 2 |

Target: Serum samples collected at week 16 from patients immunized with UBI AD vaccine (UB-311)
Assay: comp. ELISA, serum P108

| Binder | IC50-based peak height |
| --- | --- |
| EVHHQKLVFF [Aβ11-20 or APP 770 (E682-F691)] | 0 |
| SGYEVHHQKL [Aβ8-17 or APP 770 (S679-L688)] | 0 |
| HQKLVFFAED [Aβ14-23 or APP 770 (H685-D694)] | 0 |
| EFRHDSGYEV [Aβ3-12 or APP 770 (E674-V683)] | 0 |
| AEFRHDSGYE [Aβ2-11 or APP 770 (A673-E682)] | 0 |

Target: Serum samples collected at week 16 from patients immunized with UBI AD vaccine (UB-311)
Assay: comp. ELISA, serum P205

| Binder | IC50-based peak height |
| --- | --- |
| EVHHQKLVFF [Aβ11-20 or APP 770 (E682-F691)] | 0 |
| SGYEVHHQKL [Aβ8-17 or APP 770 (S679-L688)] | 0 |
| HQKLVFFAED [Aβ14-23 or APP 770 (H685-D694)] | 0 |
| EFRHDSGYEV [Aβ3-12 or APP 770 (E674-V683)] | 0 |
| AEFRHDSGYE [Aβ2-11 or APP 770 (A673-E682)] | 0 |

Target: Serum samples collected at week 16 from patients immunized with UBI AD vaccine (UB-311)
Assay: comp. ELISA, serum P202

| Binder | IC50-based peak height |
| --- | --- |
| EVHHQKLVFF [Aβ11-20 or APP 770 (E682-F691)] | 0 |
| SGYEVHHQKL [Aβ8-17 or APP 770 (S679-L688)] | 0 |
| HQKLVFFAED [Aβ14-23 or APP 770 (H685-D694)] | 0 |
| EFRHDSGYEV [Aβ3-12 or APP 770 (E674-V683)] | 0 |
| AEFRHDSGYE [Aβ2-11 or APP 770 (A673-E682)] | 0 |

Target: Immune sera of baboons immunized with UBI AD vaccine
Assay: competitive inhibition ELISA

| Binder | % inhibition at 0 µg/mL | % inhibition at 0.25 µg/mL | % inhibition at 0.5 µg/mL | % inhibition at 1 µg/mL | % inhibition at 2 µg/mL | % inhibition at 8 µg/mL | % inhibition at 32 µg/mL |
| --- | --- | --- | --- | --- | --- | --- | --- |
| EFRHDSGYEV [Aβ3-12 or APP 770 (E674-V683)] | 0% | 1% | 1% | 0% | 0% | 0% | 3% |
| AEFRHDSGYE [Aβ2-11 or APP 770 (A673-E682)] | 0% | 3% | 0% | 0% | 0% | 6% | 19% |

Target: Serum samples collected at week 16 from patients immunized with UBI AD vaccine (UB-311)
Assay: comp. ELISA, serum P204

| Binder | IC50-based peak height |
| --- | --- |
| EVHHQKLVFF [Aβ11-20 or APP 770 (E682-F691)] | 0 |
| SGYEVHHQKL [Aβ8-17 or APP 770 (S679-L688)] | 0 |
| HQKLVFFAED [Aβ14-23 or APP 770 (H685-D694)] | 0 |
| EFRHDSGYEV [Aβ3-12 or APP 770 (E674-V683)] | 0 |
| AEFRHDSGYE [Aβ2-11 or APP 770 (A673-E682)] | 0 |

Target: Serum samples collected at week 16 from patients immunized with UBI AD vaccine (UB-311)
Assay: comp. ELISA, serum P104

| Binder | IC50-based peak height |
| --- | --- |
| EVHHQKLVFF [Aβ11-20 or APP 770 (E682-F691)] | 0 |
| SGYEVHHQKL [Aβ8-17 or APP 770 (S679-L688)] | 0 |
| HQKLVFFAED [Aβ14-23 or APP 770 (H685-D694)] | 0 |
| EFRHDSGYEV [Aβ3-12 or APP 770 (E674-V683)] | 0 |
| AEFRHDSGYE [Aβ2-11 or APP 770 (A673-E682)] | 0 |

Target: Serum samples collected at week 16 from patients immunized with UBI AD vaccine (UB-311)
Assay: comp. ELISA, serum P103

| Binder | IC50-based peak height |
| --- | --- |
| EVHHQKLVFF [Aβ11-20 or APP 770 (E682-F691)] | 0 |
| SGYEVHHQKL [Aβ8-17 or APP 770 (S679-L688)] | 0 |
| HQKLVFFAED [Aβ14-23 or APP 770 (H685-D694)] | 0 |
| EFRHDSGYEV [Aβ3-12 or APP 770 (E674-V683)] | 0 |
| AEFRHDSGYE [Aβ2-11 or APP 770 (A673-E682)] | 0 |

Target: Serum samples collected at week 16 from patients immunized with UBI AD vaccine (UB-311)
Assay: comp. ELISA, serum P201

| Binder | IC50-based peak height |
| --- | --- |
| EVHHQKLVFF [Aβ11-20 or APP 770 (E682-F691)] | 0 |
| SGYEVHHQKL [Aβ8-17 or APP 770 (S679-L688)] | 0 |
| HQKLVFFAED [Aβ14-23 or APP 770 (H685-D694)] | 0 |
| EFRHDSGYEV [Aβ3-12 or APP 770 (E674-V683)] | 0 |
| AEFRHDSGYE [Aβ2-11 or APP 770 (A673-E682)] | 3 |

Target: Serum samples collected at week 16 from patients immunized with UBI AD vaccine (UB-311)
Assay: comp. ELISA, serum P203

| Binder | IC50-based peak height |
| --- | --- |
| EVHHQKLVFF [Aβ11-20 or APP 770 (E682-F691)] | 0 |
| SGYEVHHQKL [Aβ8-17 or APP 770 (S679-L688)] | 0 |
| HQKLVFFAED [Aβ14-23 or APP 770 (H685-D694)] | 0 |
| EFRHDSGYEV [Aβ3-12 or APP 770 (E674-V683)] | 0 |
| AEFRHDSGYE [Aβ2-11 or APP 770 (A673-E682)] | 0 |

Target: Serum samples collected at week 16 from patients immunized with UBI AD vaccine (UB-311)
Assay: comp. ELISA, serum P109

| Binder | IC50-based peak height |
| --- | --- |
| EVHHQKLVFF [Aβ11-20 or APP 770 (E682-F691)] | 0 |
| SGYEVHHQKL [Aβ8-17 or APP 770 (S679-L688)] | 0 |
| HQKLVFFAED [Aβ14-23 or APP 770 (H685-D694)] | 0 |
| EFRHDSGYEV [Aβ3-12 or APP 770 (E674-V683)] | 0 |
| AEFRHDSGYE [Aβ2-11 or APP 770 (A673-E682)] | 0 |

Target: Serum samples collected at week 16 from patients immunized with UBI AD vaccine (UB-311)
Assay: comp. ELISA, serum P102

| Binder | IC50-based peak height |
| --- | --- |
| EVHHQKLVFF [Aβ11-20 or APP 770 (E682-F691)] | 0 |
| SGYEVHHQKL [Aβ8-17 or APP 770 (S679-L688)] | 0 |
| HQKLVFFAED [Aβ14-23 or APP 770 (H685-D694)] | 0 |
| EFRHDSGYEV [Aβ3-12 or APP 770 (E674-V683)] | 0 |
| AEFRHDSGYE [Aβ2-11 or APP 770 (A673-E682)] | 0 |

Target: Serum samples collected at week 16 from patients immunized with UBI AD vaccine (UB-311)
Assay: comp. ELISA, serum P106

| Binder | IC50-based peak height |
| --- | --- |
| EVHHQKLVFF [Aβ11-20 or APP 770 (E682-F691)] | 0 |
| SGYEVHHQKL [Aβ8-17 or APP 770 (S679-L688)] | 0 |
| HQKLVFFAED [Aβ14-23 or APP 770 (H685-D694)] | 0 |
| EFRHDSGYEV [Aβ3-12 or APP 770 (E674-V683)] | 0 |
| AEFRHDSGYE [Aβ2-11 or APP 770 (A673-E682)] | 0 |

Target: Serum samples collected at week 16 from patients immunized with UBI AD vaccine (UB-311)
Assay: comp. ELISA, serum P209

| Binder | IC50-based peak height |
| --- | --- |
| EVHHQKLVFF [Aβ11-20 or APP 770 (E682-F691)] | 0 |
| SGYEVHHQKL [Aβ8-17 or APP 770 (S679-L688)] | 0 |
| HQKLVFFAED [Aβ14-23 or APP 770 (H685-D694)] | 0 |
| EFRHDSGYEV [Aβ3-12 or APP 770 (E674-V683)] | 0 |
| AEFRHDSGYE [Aβ2-11 or APP 770 (A673-E682)] | 0 |

Target: Serum samples collected at week 16 from patients immunized with UBI AD vaccine (UB-311)
Assay: comp. ELISA, serum P206

| Binder | IC50-based peak height |
| --- | --- |
| EVHHQKLVFF [Aβ11-20 or APP 770 (E682-F691)] | 0 |
| SGYEVHHQKL [Aβ8-17 or APP 770 (S679-L688)] | 0 |
| HQKLVFFAED [Aβ14-23 or APP 770 (H685-D694)] | 0 |
| EFRHDSGYEV [Aβ3-12 or APP 770 (E674-V683)] | 0 |
| AEFRHDSGYE [Aβ2-11 or APP 770 (A673-E682)] | 0 |

Target: Serum samples collected at week 16 from patients immunized with UBI AD vaccine (UB-311)
Assay: comp. ELISA, serum P207

| Binder | IC50-based peak height |
| --- | --- |
| EVHHQKLVFF [Aβ11-20 or APP 770 (E682-F691)] | 0 |
| SGYEVHHQKL [Aβ8-17 or APP 770 (S679-L688)] | 0 |
| HQKLVFFAED [Aβ14-23 or APP 770 (H685-D694)] | 0 |
| EFRHDSGYEV [Aβ3-12 or APP 770 (E674-V683)] | 0 |
| AEFRHDSGYE [Aβ2-11 or APP 770 (A673-E682)] | 0 |
